Data on three substances can be found in publication PMC4840315.

Assay [1] has as its target insulin. Description: ligand dot blot (densitometric analysis of dots). The note with it: 2.5 μl (0.09 mg/ml) protein dotted on nitrocellulose; 1 μg/ml insulin, 4 °C overnight; parent: est. 0.12; read off a plot.
Assay [2] has as its target insulin. The experiment in a line: pull-down (Ni-Sepharose 6 column, Western blot with anti-insulin antibody, densitometric analysis of bands). The following applies: 0.1 mg His6-tagged-IGFBP7 mixed with 0.5 mg insulin; parent: est. 0.20; read off a plot. In general terms: A western blot detects proteins with antibodies after separation by electrophoresis.

For the substance “wild-type IGFBP7 (insulin-like growth factor binding protein 7), His6-tagged (from UniProt Q16270) H200F”, the response with insulin [1] was found to be 0.11 Gradation.
With “wild-type IGFBP7 (insulin-like growth factor binding protein 7), His6-tagged (from UniProt Q16270) R198E”, the response with insulin [1] was 0.53 Gradation.
As for “wild-type IGFBP7 (insulin-like growth factor binding protein 7), His6-tagged (from UniProt Q16270) R198I; H200F”, the figures for the response with insulin [1] and with insulin [2] were 0.025 Gradation and 0.1 Gradation, respectively.
